{"source": "paper PMC8064889", "about": "(Cell Reports, 2021)", "binders": {"B1": {"name": "47D1 IgG (antibody, V domains shown)", "VH": "QVQLVQSGAEVKKPGSSVRVSCKASGGTFSTYPISWVRQAPGQGLEWMGGIIPIFGTAKSAQKFQGRVTITADEFTSTAYMEMSSLRSEDTAMYYCAREGRRYGSGWYISTGYFDYWGQGTLVTVSS", "VL": "QLVLTQPASVSGSPGQSIIVSCTGTSSDVGGYKFVSWYQQHPGKAPRVMIYDVSNRPSGVSNRFSGSKSGNTASLTISGLQADDEADYYCSSYTNSSTVVFGGGTKVTVL"}}, "key": {"[1]": {"target": "SARS-CoV-2 RBD, His6-tagged, for biolayer interferometry (SARS-CoV-2, UniProt P0DTC2)", "assay": "BLI", "conditions": "both partners purified"}, "[2]": {"target": "Avi-tag biotinylated RBD of SARS-CoV-2 S protein (SARS-CoV-2, UniProt P0DTC2)", "assay": "flow cytometry on cells", "conditions": "both partners purified"}}}
{"binder": "B1", "values": [{"measurement": "binding result", "setting": "[1]", "result": "binds"}, {"measurement": "binding result", "setting": "[2]", "result": "binds"}]}
